Like-named read-outs stand apart in the source and are kept apart here. Values belong to the molecule of their own block, whether it stands above or below them. Numbered stars: 1 amine (or outer) side, 2 acyl side, 3 side chain; on linkers, the order of the positions; unused ones are H or OH. Side chains are listed from the residue outwards. Ends that are not written are not given here. * marks the point of attachment. γGlu = O=C(O)[C@H](CCC(=O)[*:2])N[*:1]; Palmitoyl = CCCCCCCCCCCCCCCC(=O)*
Tests used:
Mouse GlucR = Mouse GlucR (Mus musculus, UniProt Q61606); assay: cAMP assay 2 in […] mouse serum albumin, mouse GlucR; conditions: assay 2, […] Mouse Serum Albumin; relative potencies vs natural ligands
Sequence of Mouse GlucR (Q61606 27-485): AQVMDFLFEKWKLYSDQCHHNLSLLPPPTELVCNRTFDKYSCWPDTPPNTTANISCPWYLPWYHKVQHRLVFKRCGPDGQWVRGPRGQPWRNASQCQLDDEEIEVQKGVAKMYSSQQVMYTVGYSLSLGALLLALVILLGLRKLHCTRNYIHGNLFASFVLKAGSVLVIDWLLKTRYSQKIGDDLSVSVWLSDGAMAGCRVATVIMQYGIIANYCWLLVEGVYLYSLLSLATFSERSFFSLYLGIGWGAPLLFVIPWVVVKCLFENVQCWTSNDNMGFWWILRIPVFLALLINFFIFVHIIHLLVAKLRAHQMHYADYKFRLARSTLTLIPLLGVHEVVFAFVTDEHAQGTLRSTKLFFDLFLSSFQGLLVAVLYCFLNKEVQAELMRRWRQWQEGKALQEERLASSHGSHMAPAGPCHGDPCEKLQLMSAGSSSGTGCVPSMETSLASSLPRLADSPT

Human GlucR = Human GlucR (Homo sapiens, UniProt P47871); assay: cAMP assay 2 in 4.4% human serum albumin, human GlucR; conditions: assay 2, 4.4% Human Serum Albumin; relative potency GlucR (vs glucagon)/relative potency GLP1R (vs GLP1)
Sequence of Human GlucR (P47871 26-477): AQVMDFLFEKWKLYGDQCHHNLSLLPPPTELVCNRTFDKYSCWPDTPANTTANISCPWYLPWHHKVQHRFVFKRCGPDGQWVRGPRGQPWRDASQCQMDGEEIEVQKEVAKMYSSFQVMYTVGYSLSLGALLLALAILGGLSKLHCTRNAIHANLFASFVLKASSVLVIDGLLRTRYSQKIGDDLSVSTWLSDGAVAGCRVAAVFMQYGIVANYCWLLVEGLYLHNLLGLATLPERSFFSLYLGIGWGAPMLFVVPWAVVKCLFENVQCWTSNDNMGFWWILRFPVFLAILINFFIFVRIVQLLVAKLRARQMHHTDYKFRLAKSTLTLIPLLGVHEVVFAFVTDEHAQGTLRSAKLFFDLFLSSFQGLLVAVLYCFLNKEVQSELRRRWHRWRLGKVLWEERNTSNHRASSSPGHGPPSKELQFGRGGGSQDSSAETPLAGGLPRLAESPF

[1] = frozen blank plasma from rat; conditions: 37° C, up to 48 hours
[2] = frozen blank plasma from mouse; conditions: 37° C, up to 48 hours
human GLP-1 receptor [3] = target: T1, human GLP-1 receptor (human, UniProt P43220 24-463); assay: cell-based or functional assay
human glucagon receptor [4] = target: T2, human glucagon receptor (human, UniProt P47871 26-477); assay: cell-based or functional assay
T2 sequence (P47871 26-477): as above

human GLP-1 receptor [5] = target: T1, human GLP-1 receptor; assay: cell-based or functional assay; remark: listed apart in the source
[6] = target: T3, human glucose-dependent insulinotropic peptide (gastric inhibitory polypeptide) receptor (human, UniProt P48546 22-466); assay: cell-based or functional assay
T3 sequence (looked up): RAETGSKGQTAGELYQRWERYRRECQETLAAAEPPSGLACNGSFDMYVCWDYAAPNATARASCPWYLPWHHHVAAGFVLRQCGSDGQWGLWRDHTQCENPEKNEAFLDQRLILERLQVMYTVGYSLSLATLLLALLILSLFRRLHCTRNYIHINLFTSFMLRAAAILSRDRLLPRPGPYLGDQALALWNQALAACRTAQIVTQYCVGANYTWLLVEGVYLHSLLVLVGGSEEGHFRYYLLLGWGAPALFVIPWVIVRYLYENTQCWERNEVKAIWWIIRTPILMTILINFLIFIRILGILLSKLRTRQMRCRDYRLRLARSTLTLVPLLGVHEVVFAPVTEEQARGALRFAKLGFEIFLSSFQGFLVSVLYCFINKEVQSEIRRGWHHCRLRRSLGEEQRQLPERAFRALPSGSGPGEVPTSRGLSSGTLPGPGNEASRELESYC

human glucagon receptor [7] = target: T2, human glucagon receptor; assay: cell-based or functional assay; remark: listed apart in the source
human GLP-1 receptor [8] = target: T1, human GLP-1 receptor; assay: cell-based or functional assay; remark: listed apart in the source
[9] = target: T3, human glucose-dependent insulinotropic …; assay: cell-based or functional assay; remark: listed apart in the source
human glucagon receptor [10] = target: T2, human glucagon receptor; assay: cell-based or functional assay; remark: listed apart in the source
human GLP-1 receptor [11] = target: T1, human GLP-1 receptor; assay: cell-based or functional assay; remark: listed apart in the source
mouse GLP-1 receptor = target: T4, mouse GLP-1 receptor (mouse, UniProt O35659 22-463); assay: cell-based or functional assay
T4 sequence (looked up): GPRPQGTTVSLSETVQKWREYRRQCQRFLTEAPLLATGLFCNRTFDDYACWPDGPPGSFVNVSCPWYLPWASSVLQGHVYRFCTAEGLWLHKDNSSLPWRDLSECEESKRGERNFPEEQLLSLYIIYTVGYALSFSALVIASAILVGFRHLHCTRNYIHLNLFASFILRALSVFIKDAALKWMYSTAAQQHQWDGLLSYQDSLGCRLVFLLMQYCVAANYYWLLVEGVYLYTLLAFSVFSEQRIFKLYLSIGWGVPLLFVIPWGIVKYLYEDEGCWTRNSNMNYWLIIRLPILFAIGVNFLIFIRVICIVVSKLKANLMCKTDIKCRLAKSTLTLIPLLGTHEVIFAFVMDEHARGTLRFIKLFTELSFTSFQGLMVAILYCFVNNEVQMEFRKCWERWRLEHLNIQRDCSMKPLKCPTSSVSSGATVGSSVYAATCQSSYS

mouse glucagon receptor = mouse glucagon receptor (mouse, UniProt Q61606 27-485); assay: cell-based or functional assay
Sequence of mouse glucagon receptor (Q61606 27-485): as the sequence (Q61606 27-485) above

rat GLP-1 receptor = target: T5, rat GLP-1 receptor (rat, UniProt P32301 22-463); assay: cell-based or functional assay
T5 sequence (looked up): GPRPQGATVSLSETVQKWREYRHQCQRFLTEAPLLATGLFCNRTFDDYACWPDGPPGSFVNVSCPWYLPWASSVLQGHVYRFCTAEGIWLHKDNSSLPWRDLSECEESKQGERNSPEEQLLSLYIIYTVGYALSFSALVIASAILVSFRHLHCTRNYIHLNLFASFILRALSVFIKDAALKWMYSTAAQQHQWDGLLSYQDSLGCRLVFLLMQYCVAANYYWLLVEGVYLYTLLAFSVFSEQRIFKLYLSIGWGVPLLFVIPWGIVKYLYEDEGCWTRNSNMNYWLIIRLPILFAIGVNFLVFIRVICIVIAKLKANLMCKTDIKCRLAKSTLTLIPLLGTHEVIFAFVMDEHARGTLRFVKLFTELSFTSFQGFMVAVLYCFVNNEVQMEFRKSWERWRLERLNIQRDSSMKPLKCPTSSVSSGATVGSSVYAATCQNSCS

rat glucagon receptor = rat glucagon receptor (rat, UniProt P30082 27-485); assay: cell-based or functional assay
Sequence of rat glucagon receptor (P30082 27-485): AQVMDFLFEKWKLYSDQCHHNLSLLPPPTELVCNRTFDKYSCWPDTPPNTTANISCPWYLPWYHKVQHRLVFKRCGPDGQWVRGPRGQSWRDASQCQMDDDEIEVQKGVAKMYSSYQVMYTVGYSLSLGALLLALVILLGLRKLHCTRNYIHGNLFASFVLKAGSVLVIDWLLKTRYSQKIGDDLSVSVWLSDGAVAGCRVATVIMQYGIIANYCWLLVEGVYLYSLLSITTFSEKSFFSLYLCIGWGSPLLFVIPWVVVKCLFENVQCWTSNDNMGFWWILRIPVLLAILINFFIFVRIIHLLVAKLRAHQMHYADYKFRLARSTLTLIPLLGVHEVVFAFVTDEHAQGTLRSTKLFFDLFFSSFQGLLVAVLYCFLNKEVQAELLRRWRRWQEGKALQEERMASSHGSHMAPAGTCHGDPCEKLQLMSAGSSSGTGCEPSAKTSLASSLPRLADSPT

human serum albumin = human serum albumin (Homo sapiens, UniProt P02768); assay: calculated from the variation in cAMP generation with the HSA concentration (assay 2)
Sequence of human serum albumin (P02768 25-609 limits assumed): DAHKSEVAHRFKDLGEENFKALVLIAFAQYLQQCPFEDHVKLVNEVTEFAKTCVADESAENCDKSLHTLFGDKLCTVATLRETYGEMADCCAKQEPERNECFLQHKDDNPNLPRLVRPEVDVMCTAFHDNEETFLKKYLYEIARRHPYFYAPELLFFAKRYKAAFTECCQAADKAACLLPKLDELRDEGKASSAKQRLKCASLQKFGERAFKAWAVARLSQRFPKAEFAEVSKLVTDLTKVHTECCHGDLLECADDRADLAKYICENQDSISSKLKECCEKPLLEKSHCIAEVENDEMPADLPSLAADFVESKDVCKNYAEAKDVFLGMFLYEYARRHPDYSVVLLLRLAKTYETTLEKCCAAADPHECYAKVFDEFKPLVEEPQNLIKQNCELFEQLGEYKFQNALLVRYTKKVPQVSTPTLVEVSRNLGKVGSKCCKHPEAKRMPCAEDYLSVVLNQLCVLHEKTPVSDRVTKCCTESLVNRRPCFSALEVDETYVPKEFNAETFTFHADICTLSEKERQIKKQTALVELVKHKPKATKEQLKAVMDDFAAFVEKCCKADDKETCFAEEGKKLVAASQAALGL

Mouse GlucR/GLP1R Ratio (Mouse GlucR): 0.006
Human GlucR/GLP1R Ratio (Human GlucR): 0.013
Molecule: CCCCCCCCCCCCCCCC(=O)N[C@@H](CCC(=O)NCCCC[C@H](NC(=O)[C@H](CO)NC(=O)[C@H](CC(=O)O)NC(=O)[C@H](CC(C)C)NC(=O)[C@H](Cc1ccc(O)cc1)NC(=O)[C@H](CCCCN)NC(=O)[C@H](CO)NC(=O)[C@H](Cc1ccc(O)cc1)NC(=O)[C@H](CC(=O)O)NC(=O)[C@H](CO)NC(=O)[C@@H](NC(=O)[C@H](Cc1ccccc1)NC(=O)[C@@H](NC(=O)CNC(=O)[C@H](CCC(N)=O)NC(=O)CNC(=O)[C@@H](N)Cc1c[nH]cn1)[C@@H](C)O)[C@@H](C)O)C(=O)N[C@@H](CCCNC(=N)N)C(=O)N[C@@H](C)C(=O)N[C@@H](CCC(N)=O)C(=O)N[C@@H](CC(=O)O)C(=O)N[C@@H](Cc1ccccc1)C(=O)N[C@H](C(=O)N[C@@H](CCC(N)=O)C(=O)N[C@@H](Cc1c[nH]c2ccccc12)C(=O)N[C@@H](CC(C)C)C(=O)N[C@H](C(=O)N[C@@H](C)C(=O)NCC(=O)NCC(N)=O)C(C)C)C(C)C)C(=O)O [Peptide G380]

fragment found [1]: DPP IV-cleavage product
fragment found [2]: DPP IV-cleavage product
Molecule: HSQGTFTSDYSKXLDSERARDFVAWLVAGG-amide X13 = K(gE-palm)

EC50 at the GLP1R at 0% HSA (calculated from cAMP generation against HSA concentration) (human GLP-1 receptor [3]): 0.007 nM
cAMP EC50 (assay 1) (human glucagon receptor [4]): 0.00623 nM
cAMP EC50 (assay 1) (human GLP-1 receptor [5]): 0.018 nM
cAMP EC50 (assay 1) [6]: 45 nM
cAMP EC50 (assay 1) (human glucagon receptor [7]): 0.015 nM
cAMP EC50 (assay 1) (human GLP-1 receptor [8]): 0.0395 nM
cAMP EC50 (assay 1) [9]: 56.6 nM
cAMP EC50 (assay 2, 4.4% human serum albumin) (human glucagon receptor [10]): 0.402 nM
cAMP EC50 (assay 2, 4.4% human serum albumin) (human GLP-1 receptor [11]): 0.455 nM
cAMP EC50 (assay 2, 3.2% mouse serum albumin) (mouse GLP-1 receptor): 1.1 nM
cAMP EC50 (assay 2, 3.2% mouse serum albumin) (mouse glucagon receptor): 5.46 nM
cAMP EC50 (assay 2, 3.2% rat serum albumin) (rat GLP-1 receptor): 0.081 nM
cAMP EC50 (assay 2, 3.2% rat serum albumin) (rat glucagon receptor): 45.1 nM
free peptide at 4.4% HSA (human serum albumin): 0.85%
B1: G730 (peptide)
peptide: HSQGTFTSDYSKK([γGlu-Palmitoyl])LDSERARDFVAWLVAGG-NH2
modifications: N-terminus assumed
SMILES: CCCCCCCCCCCCCCCC(=O)N[C@@H](CCC(=O)NCCCC[C@H](NC(=O)[C@H](CCCCN)NC(=O)[C@H](CO)NC(=O)[C@H](Cc1ccc(O)cc1)NC(=O)[C@H](CC(=O)O)NC(=O)[C@H](CO)NC(=O)[C@@H](NC(=O)[C@H](Cc1ccccc1)NC(=O)[C@@H](NC(=O)CNC(=O)[C@H](CCC(N)=O)NC(=O)[C@H](CO)NC(=O)[C@@H](N)Cc1c[nH]cn1)[C@@H](C)O)[C@@H](C)O)C(=O)N[C@@H](CC(C)C)C(=O)N[C@@H](CC(=O)O)C(=O)N[C@@H](CO)C(=O)N[C@@H](CCC(=O)O)C(=O)N[C@@H](CCCNC(=N)N)C(=O)N[C@@H](C)C(=O)N[C@@H](CCCNC(=N)N)C(=O)N[C@@H](CC(=O)O)C(=O)N[C@@H](Cc1ccccc1)C(=O)N[C@H](C(=O)N[C@@H](C)C(=O)N[C@@H](Cc1c[nH]c2ccccc12)C(=O)N[C@@H](CC(C)C)C(=O)N[C@H](C(=O)N[C@@H](C)C(=O)NCC(=O)NCC(N)=O)C(C)C)C(C)C)C(=O)O

From patent US20220098265A1 (MEDIMMUNE LIMITED, priority 2012, published 2022)
